Assay [1] addresses T1, EGFR-HER3 heteromer (Homo sapiens, UniProt P00533+P21860).
T1 construct: used to replace the C terminus of the full-length constructs (with or without Rluc8); host or cells: HEK293FT
Nature of the assay: RTK-HIT BRET between HER3/Rluc8 and Grb2/Venus with untagged EGFR co-expressed. In kind it is cell-based. As to conditions: HEK293FT cells, about 25 minutes of agonist stimulation. On the procedure: (§1) HEK293FT cells (Life Technologies) were maintained at 37°C in 5% CO2 and complete media (Dulbecco's modified Eagle's medium (DMEM) containing 0.3 mg/ml glutamine, 100 IU/ml penicillin and 100 µg/ml streptomycin (GIBCO BRL, Carlsbad, CA, USA)) supplemented with 10% foetal calf serum (FCS) and 400 µg/ml Geneticin (Gibco). Transient transfections were carried out 24 h after seeding about 550,000 cells/well of a 6-well plate. Genejuice (Merck, Kilsyth, Australia) transfection reagent was used according to the manufacturer's instructions. Cells were harvested with 0.05% Trypsin-EDTA (Gibco).
(§2) Following initial titration of cDNA amounts (data not shown), two ratios were selected for the heteromer combinations shown in Figure 2. […] BRET measurements were taken at 37°C using the VICTOR Light plate reader with Wallac 1420 software (PerkinElmer, Glen Waverley, Victoria, Australia). Filtered light emissions were sequentially measured at 400–475 and 520–540 nm. The BRET signal was calculated by subtracting the ratio of 520–540 nm emission over 400–475 nm emission for a vehicle-treated cell sample from the same ratio for a second aliquot of the same cells treated with agonist, as described previously, [35].
(In BRET a luciferase serves as donor, and the signal depends on an acceptor being close.)

The target of assay [2] is T2, HER3 (Homo sapiens, UniProt P21860).
T2 construct: used to replace the C terminus of the full-length constructs (with or without Rluc8); host or cells: HEK293FT
T2 sequence (P21860 20-1342): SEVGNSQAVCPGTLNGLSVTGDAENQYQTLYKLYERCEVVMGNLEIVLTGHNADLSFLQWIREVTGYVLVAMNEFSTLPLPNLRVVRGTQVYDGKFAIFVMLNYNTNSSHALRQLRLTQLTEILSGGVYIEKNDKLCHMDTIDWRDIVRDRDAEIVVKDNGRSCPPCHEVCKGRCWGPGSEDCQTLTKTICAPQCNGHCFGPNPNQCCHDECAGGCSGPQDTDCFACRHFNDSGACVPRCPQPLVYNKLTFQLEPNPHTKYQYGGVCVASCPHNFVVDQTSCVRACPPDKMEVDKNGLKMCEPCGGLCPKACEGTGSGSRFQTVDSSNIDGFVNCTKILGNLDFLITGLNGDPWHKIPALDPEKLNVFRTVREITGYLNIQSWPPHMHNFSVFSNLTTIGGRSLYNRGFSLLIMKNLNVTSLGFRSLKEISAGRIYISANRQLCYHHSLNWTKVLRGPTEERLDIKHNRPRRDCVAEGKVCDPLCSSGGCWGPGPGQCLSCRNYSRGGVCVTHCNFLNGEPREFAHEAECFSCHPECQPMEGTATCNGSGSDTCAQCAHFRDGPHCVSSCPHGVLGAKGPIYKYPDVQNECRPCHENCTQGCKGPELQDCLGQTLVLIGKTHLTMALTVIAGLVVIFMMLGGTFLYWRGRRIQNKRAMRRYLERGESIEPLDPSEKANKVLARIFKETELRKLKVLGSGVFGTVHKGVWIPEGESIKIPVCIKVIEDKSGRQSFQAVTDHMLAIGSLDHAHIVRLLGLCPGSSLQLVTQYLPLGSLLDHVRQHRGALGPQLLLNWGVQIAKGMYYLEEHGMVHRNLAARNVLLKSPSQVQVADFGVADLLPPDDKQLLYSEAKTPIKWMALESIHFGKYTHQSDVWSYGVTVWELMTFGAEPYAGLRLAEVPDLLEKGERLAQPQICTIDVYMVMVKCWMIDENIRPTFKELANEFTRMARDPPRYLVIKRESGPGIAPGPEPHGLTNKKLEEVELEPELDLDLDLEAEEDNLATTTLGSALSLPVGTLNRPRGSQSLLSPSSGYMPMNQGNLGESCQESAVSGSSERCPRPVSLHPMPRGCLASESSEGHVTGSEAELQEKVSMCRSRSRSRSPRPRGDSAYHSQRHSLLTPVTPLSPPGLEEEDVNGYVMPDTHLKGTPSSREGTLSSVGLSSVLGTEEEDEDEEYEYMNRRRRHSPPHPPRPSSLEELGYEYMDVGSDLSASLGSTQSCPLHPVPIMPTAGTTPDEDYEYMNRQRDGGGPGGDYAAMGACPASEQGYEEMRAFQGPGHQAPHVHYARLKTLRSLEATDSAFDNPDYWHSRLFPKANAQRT
In words: Ligand-induced BRET between HER3/Rluc8 and Grb2/Venus (+ pcDNA3). In kind it is cell-based. The procedure: as §1
as §2, with “HEK293FT cells were transiently transfected with” for “Following initial titration of”, “encoding a RTK fused to Rluc8 (RTK/Rluc8) and Grb2 fused to Venus (Grb2/Venus), along with a second RTK that was untagged with respect to BRET signaling, or empty vector (pcDNA3).” for “amounts (data not shown), two ratios were selected for the heteromer combinations shown in Figure 2.”, “[35]. […]” for “[35].”
Data were analyzed using Prism 5 graphing software (GraphPad, La Jolla, CA, USA). […]

The values that follow come from PMC3659105, “Profiling Epidermal Growth Factor Receptor and Heregulin Receptor 3 Heteromerization Using Receptor Tyrosine Kinase Heteromer Investigation Technology” (PLoS ONE, 2013).

What is called pEC50 is the negative decadic logarithm of the EC50, by convention in mol/L. With HRG: Heregulin-β1, ligand of HER3, the pEC50 in assay [1] is on record as 7.46±0.14 (n = 5).

For `COc1cc2ncnc(Nc3cccc(Cl)c3)c2cc1OC.Cl` [AG-1478, AG-1478 hydrochloride, reference compound], the “effect on BRET” value in assay [2] (increasing concentrations of AG-1478, pre-treated or not with 20 nM EGF or HRG) is listed as “no effect”.

“EGF: epidermal growth factor, ligand selective for EGFR”: in assay [2] (HER3/Rluc8 + Grb2/Venus without EGFR, 1 µM agonist, kinetic), the “agonist-induced BRET signal” value is given as “no or little BRET signal”.
